Assay [1] deals with T1, D domain of human Tenascin-C (human, UniProt P24821 1622-1711, limits assumed).
T1 construct: domain: D domain; Coated on a CM5 chip; also called domain D of human Tenascin-C; human tenascin-C D domain
T1 sequence (looked up): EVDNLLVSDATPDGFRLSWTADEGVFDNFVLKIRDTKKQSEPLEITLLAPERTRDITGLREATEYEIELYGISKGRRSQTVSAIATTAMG
Kind of assay: Biacore (SPR), scFv over CM5 chip coated with human tenascin-C D domain. The procedure: CPR01 was analysed for antigen binding by Biacore using a CM5 chip coated with the human tenascin-C D domain. The flow rate for the Biacore analysis was set at 10 μL/min.
Background: Surface plasmon resonance follows binding to a sensor surface in real time, without labels.

The target of assay [2] is T2, BCD domains of murine tenascin-C (murine, UniProt Q80YX1 1349-1620, limits assumed).
T2 construct: domain: BCD domains; Coated on a CM5 chip; also called domain BCD of murine Tenascin-C
T2 sequence (looked up): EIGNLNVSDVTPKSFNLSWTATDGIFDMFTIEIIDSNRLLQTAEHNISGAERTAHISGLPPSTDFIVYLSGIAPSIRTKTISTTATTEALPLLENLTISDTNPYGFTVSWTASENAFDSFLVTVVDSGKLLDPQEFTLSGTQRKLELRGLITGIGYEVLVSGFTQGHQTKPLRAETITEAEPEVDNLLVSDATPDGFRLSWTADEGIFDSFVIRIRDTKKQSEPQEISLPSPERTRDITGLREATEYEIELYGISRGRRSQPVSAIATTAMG
Kind of assay: Biacore (SPR), scFv on BCD domains of murine tenascin-C.

Another assay addresses human MMP3 (human, UniProt P08254 100-272). Kind of assay: Biacore (SPR), scFv; set-up not described.
Another assay concerns the target murine MMP3 (murine, UniProt P28862 100-272). Kind of assay: Biacore (SPR), scFv; set-up not described.

Sequence of murine MMP3 (P28862 100-272): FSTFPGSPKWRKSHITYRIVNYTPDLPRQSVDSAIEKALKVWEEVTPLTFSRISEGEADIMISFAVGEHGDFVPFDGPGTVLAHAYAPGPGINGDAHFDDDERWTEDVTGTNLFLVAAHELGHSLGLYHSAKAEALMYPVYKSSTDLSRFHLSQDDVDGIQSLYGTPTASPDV
Sequence of human MMP3 (P08254 100-272): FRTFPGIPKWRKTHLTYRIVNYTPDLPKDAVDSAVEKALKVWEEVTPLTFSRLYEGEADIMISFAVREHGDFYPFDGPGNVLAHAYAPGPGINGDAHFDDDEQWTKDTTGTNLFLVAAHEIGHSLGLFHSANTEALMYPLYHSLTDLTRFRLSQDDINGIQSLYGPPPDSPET

B1: scFv(CPR01) (scFv)
scFv: EVQLLESGGGLVQPGGSLRLSCAASGFTFSSYAMSWVRQAPGKGLEWVSAIKARGGLTYYADSVKGRFTISRDNSKNTLYLQMNSLRAEDTAVYYCAKGGAPFDYWGQGTLVTVSSGGGGSGGGGSGGGGSSELTQDPAVSVALGQTVRITCQGDSLRSYYASWYQQKPGQAPVLVIYGKNNRPSGIPDRFSGSSSGNTASLTITGAQAEDEADYYCNSSPLNRLAVVFGGGTKLTVLG
notes: Expressed in CHO.S cells as scFv
What is called Kd is the free concentration of one partner at which half of the binding sites on the other are occupied at equilibrium, for simple one-to-one binding. Read a high Kd as lower affinity. Usually koff stands for the rate constant with which the complex falls apart. The low end stands for a long-lived complex, the high end for a short-lived complex. One may read the kon as the second-order rate constant of association. Read a low kon as slower complex formation. In assay [1], B1 returned a Kd of 70 nM, a koff of 0.011 s⁻¹ and an on-rate constant (kon) of 151000 M⁻¹ s⁻¹. In assay [2], this molecule came in with a Kd of 29 nM, a dissociation rate constant (koff) of 0.007 s⁻¹ and an on-rate (kon) of 240000 M⁻¹ s⁻¹.

B2: scFv(CH01) (scFv)
scFv: EVQLLESGGGLVQPGGSLRLSCAASGFTFSPYAMSWVRQAPGKGLEWVSAITGQGGVTYYADSVKGRFTISRDNSKNTLYLQMNSLRAEDTAVYYCAKISSFHFDYWGQGTLVTVSSGGGGSGGGGSGGGGEIVLTQSPGTLSLSPGERATLSCRASQSVSSHHLAWYQQKPGQAPRLLIYDASSRATGIPDRFSGSGSGTDFTLTISRLEPEDFAVYYCQQPRGAPTTFGQGTKVEIK
notes: First disclosed in PCT/EP2015/067309; also called anti-MMP3 antibody CH01
Regarding B2, in the assay with human MMP3, the Kd amounted to 28 nM, the koff turned out to be 0.0047 s⁻¹ and the kon amounted to 170000 M⁻¹ s⁻¹. In the assay with murine MMP3, this molecule returned a Kd of 29 nM, an off-rate constant (koff) of 0.0025 s⁻¹ and an association rate constant (kon) of 80000 M⁻¹ s⁻¹.

Source of the values: patent US20190062414A1 (PHILOGEN S P A, published 2019).
